Test results published in US20150335761A1, “COMPOSITIONS AND METHODS FOR CONTRACEPTION” (priority 2012, published 2015).

Legend:
[1] = in vitro release study of PADM in human plasma; format: in vitro ADME; conditions: over 6-7 h in human plasma
Excerpt: (§1) Activated CB cleaves the Phe-Lys dipeptide at the Lys-PABC bond. Then, the exposed PABC spacer spontaneously decarboxylates upon deacylation and free ADM molecules are released.

Cathepsin B (CB) = Cathepsin B (CB) (Homo sapiens, UniProt P07858); test: in vitro release study of PADM in CB solution; format: biochemical; conditions: 37° C., read-out: half-life of ADM release
Excerpt: as §1

Which “changes (ADM release) in human plasma” value [1] does the source give for `COc1cccc2c1C(=O)c1c(O)c3c(c(O)c1C2=O)C[C@@](O)(C(=O)CO)C[C@@H]3O[C@H]1C[C@H](NC(=O)OCc2ccc(NC(=O)[C@H](CCCCN)NC(=O)[C@H](Cc3ccccc3)NC(C)=O)cc2)[C@H](O)[C@H](C)O1` [PADM, Ac-Phe-Lys-PABC-ADM] here?
The value was “no changes were observed”.

What about the half-life (Cathepsin B (CB)) of the same molecule?
The half-life was 16 min.
